Consider three molecules from patent US9046524B1, “Method to quantify and measure excess colipase in a pancreatin active pharmaceutical ingredient” (Scientific Protein Laboratories, LLC, priority 2012, dated 2015).

Holding throughout (assay type): biochemical
Data set [1] deals with T1, lipase (Sus scrofa, UniProt P00591).
T1 construct: purchased USP Rockville, Md; 1494079
T1 sequence (P00591 1-450): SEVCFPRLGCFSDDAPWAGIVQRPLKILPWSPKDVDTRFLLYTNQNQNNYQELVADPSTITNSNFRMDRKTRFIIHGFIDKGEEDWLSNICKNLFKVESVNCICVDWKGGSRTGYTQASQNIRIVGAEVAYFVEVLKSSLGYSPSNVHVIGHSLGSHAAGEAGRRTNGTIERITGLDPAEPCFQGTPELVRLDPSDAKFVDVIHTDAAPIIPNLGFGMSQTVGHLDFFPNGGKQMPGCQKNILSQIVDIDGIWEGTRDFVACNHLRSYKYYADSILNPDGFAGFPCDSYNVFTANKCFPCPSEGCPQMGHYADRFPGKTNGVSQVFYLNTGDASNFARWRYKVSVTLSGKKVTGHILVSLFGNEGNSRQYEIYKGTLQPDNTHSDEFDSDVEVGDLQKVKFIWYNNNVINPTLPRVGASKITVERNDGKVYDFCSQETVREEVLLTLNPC
The experiment in a line: Bile salt (Na-TDC) inhibition of lipase activity against tributyrin. The method, then: Lipase activity against tributyrin is assayed with different concentration of TDC to determine the CMC for inhibition. The minimum TDC concentration to achieve sufficient inhibition of lipase activity is determined. Five different concentrations (1, 4, 8, 12 and 16 mM) of sodium taurodeoxy-cholate (Na-TDC) are used to determine the CMC of bile salt on two concentrations of lipase (2.5 and 5.0 μg/mL). […] As shown also in FIG. 4, increasing the concentration of bile salt above the CMC results in a progressive inhibition of lipase activity (4-16 mM Na-TDC). […] The lipase inhibition with higher concentration of bile salt (above CMC) is more consistent with the lipase at 5.0 μg/mL when compared to 2.5 μg/mL lipase (FIG. 4).

The target of the next data set is T2, pancreatin lipase (Sus scrofa, UniProt P00591).
T2 construct: purchased USP Rockville, Md; 1494079; host or cells: also pancreatin API samples #1, #2, #3 (pancreas extract)
T2 sequence (P00591 1-450): T1 sequence (P00591 1-450)
The experiment in a line: Orlistat inhibition of lipase activity on GTB substrate. The note with it: 1.0 μM Lipase:Orlistat equal molar, 5 minutes on ice; USP Lipase and pancreatin samples #1, #2, #3; 1 mM Na-TDC.

Data set [2] addresses T3, lipase (Sus scrofa, UniProt P00591).
T3 construct: from tissue; host or cells: pancreatin API batches (pancreas extract)
T3 sequence (P00591 1-450): T1 sequence (P00591 1-450)
T3 sequence (P02703 23-112 partner): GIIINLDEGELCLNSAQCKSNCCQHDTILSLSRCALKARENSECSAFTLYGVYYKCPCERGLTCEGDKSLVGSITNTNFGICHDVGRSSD
As to the kind of experiment: Reactivation of bile salt-inhibited lipase by added colipase. Here is the method:
In yet another embodiment, the effect of colipase on lipase activity and determination of the optimum concentration of colipase to measure the restored lipase activity is studied. The method for colipase determination is based on the principle that lipase inactivated by bile salt is reactivated by colipase (FIG. 1). FIG. 4 supports the theory of reactivation of lipase with the addition of exogenous colipase. As such, different concentrations of bile salt (0, 4, 8, 12 and 16 mM) are tested in the presence of 5.0 μg of lipase per reaction to measure the lipase activity. To each reaction beaker, a different amount of colipase (2.5, 5.0 and 10 μg) is added to the assay mixture prior to the lipase.
However, by adding different concentration of exogenous colipase (Sigma Cat #C3028), lipase activity is restored. In FIG. 5, 2.5 μg colipase, 5.0 μg colipase, and 10.0 μg colipase bars with 4, 8, 12 and 16 mM Na-TDC represent the lipase activity due to reactivation of lipase from addition of exogenous colipase. The presence of colipase at higher concentration will inhibit lypolysis. […] Although the main function of colipase is to restore the activity of the bile salt-inhibited lipase, colipase also has been reported to affect the activity of lipase in absence of bile salts by stabilizing lipase and decreasing its rate of inactivation in the presence of substrate (see Borgstrom and Brockman, 1984). […] Results reveal the most favorable amount of colipase to recover the inhibited lipase is 2.5 μg per assay with 4 mM Na-TDC.
In still another embodiment, a separate study is performed with differing amounts of lipase (2.5, 5.0 and 10 μg per reaction) to determine the maximum recovery of lipase activity in the presence of 4 mM Na-TDC and 2.5 μg added colipase. The colipase content of the sample is determined as a difference between two titration values, the blank with lipase and the test with lipase plus added colipase (test values−blank values). The accuracy of the determination is dependent on the relative proportion between lipase and colipase.
The activity in the absence of added colipase increases with increase in lipase amount, due to presence of endogenous colipase. Further, the lipase activity increases by adding exogenous colipase.

Method for pancreatin lipase: To check the specificity of the substrate GTB, an inhibition experiment is conducted with the specific inhibitor Orlistat (Tetrahydrolipstatin, THL, Sigma #04139). […] To check the specificity of GTB substrate, bile salt below CMC concentration (1 mM Na-TDC) is chosen to obtain maximum lipase activity.
The Orlistat is dissolved in dimethyl sulfoxide (DMSO) to obtain 1.0 mg/mL stock solution. Lipase (USP) and pancreatin samples #1, #2 and #3 are mixed with Orlistat at equal molar concentrations (1.0 μM Lipase:Orlistat) and incubated for 5 minutes on ice. The assays are performed on USP Lipase and pancreatin API samples with and without Orlistat. All the samples are titrated with 0.005 M NaOH for 5 minutes in a glass mixing chamber with 30 mL of substrate mix containing 1 mM Na-TDC at 37° C. temperature and pH 7.5.

`C[C@H](CCC(=O)NCCS(=O)(=O)[O-])[C@H]1CC[C@H]2[C@@H]3CC[C@@H]4C[C@H](O)CC[C@]4(C)[C@H]3C[C@H](O)[C@]12C.O.[Na+]` [Na-TDC, sodium taurodeoxycholate hydrate]: the “effect on lipase activity below CMC” value on lipase [1] (1 mM Na-TDC compared to 0 mM) is given as “enhancement in lipase activity”. Further, the “effect on lipase activity above the CMC” value at lipase [1] (4, 8, 12 & 16 mM Na-TDC, lipase 2.5 and 5.0 μg/mL) is listed as “almost complete inhibition of lipase activity”.

With `CCCCCCCCCCC[C@@H](C[C@@H]1OC(=O)[C@H]1CCCCCC)OC(=O)[C@H](CC(C)C)NC=O` [Orlistat], the “inhibition of lipase activity” value against pancreatin lipase amounted to 90%.

B1: colipase: Colipase Standard: Sigma Colipase from porcine pancreas Cat #C3028 (protein, UniProt P02703 23-112, looked up)
Colipase: T3 sequence (P02703 23-112 partner)
As for B1, in the data set with lipase [2] (2.5 μg colipase, 4 mM Na-TDC, 10.0 μg lipase), the restored lipase activity came to 0.23 fold. Also, the “increase in restored lipase activity” value with lipase [2] (2.5 μg colipase, 4 mM Na-TDC, 2.5 and 5.0 μg of lipase) is “two-fold”. In the data set with lipase [2] (2.5 μg colipase, without bile salt, 5.0 μg lipase), the “increase in lipase activity by addition of colipase” value is “about 1.5 fold”. The “restored lipase activity with 5 and 10 μg colipase, fold lower than with 2.5 μg colipase” value with lipase [2] (16 mM TDC) is given as 4 fold.
